{"source": "paper PMC4911921", "about": "“Hfq assists small RNAs in binding to the coding sequence of ompD mRNA and in rearranging its structure”", "key": {"Hfq R16A [1]": {"target": "T1, Hfq R16A (Salmonella, UniProt P0A1R0 1-102, R16A)", "experiment": "EMSA; tightest complex; 24 mM Tris-HCl pH 7.5, 50 mM NaCl, 50 mM NH4Cl, 50 mM KCl, 0.5 mM EDTA, 2 mM MgCl2, 5% glycerol, room temperature, 1 h; 6% native gel in 1x THEM2", "conditions": "protein: recombinant; tags: C-terminal His6; chain copies: 6; label: 5'-32P; five stem-loops SL1-SL5"}, "Hfq Y25D [2]": {"target": "T2, Hfq Y25D (Salmonella, UniProt P0A1R0 1-102, Y25D)", "experiment": "EMSA; tightest complex; 24 mM Tris-HCl pH 7.5, 50 mM NaCl, 50 mM NH4Cl, 50 mM KCl, 0.5 mM EDTA, 2 mM MgCl2, 5% glycerol, room temperature, 1 h; 6% native gel in 1x THEM2", "conditions": "protein: recombinant; tags: C-terminal His6; chain copies: 6; label: 5'-32P; five stem-loops SL1-SL5"}, "Hfq K56A [3]": {"target": "T3, Hfq K56A (Salmonella, UniProt P0A1R0 1-102, K56A)", "experiment": "EMSA; tightest complex; 24 mM Tris-HCl pH 7.5, 50 mM NaCl, 50 mM NH4Cl, 50 mM KCl, 0.5 mM EDTA, 2 mM MgCl2, 5% glycerol, room temperature, 1 h; 6% native gel in 1x THEM2", "conditions": "protein: recombinant; tags: C-terminal His6; chain copies: 6; label: 5'-32P; five stem-loops SL1-SL5"}, "Hfq wt [4]": {"target": "T4, Hfq wt (Salmonella, UniProt P0A1R0 1-102)", "experiment": "EMSA; specific site (Ks); 24 mM Tris-HCl pH 7.5, 50 mM NaCl, 50 mM NH4Cl, 50 mM KCl, 0.5 mM EDTA, 2 mM MgCl2, 5% glycerol, room temperature, 1 h; 6% native gel in 1x THEM2", "conditions": "protein: recombinant, tags: C-terminal His6, chain copies: 6, label: 5'-32P"}, "Hfq wt [5]": {"target": "T4, Hfq wt", "experiment": "EMSA; two nonspecific sites (Kns); 24 mM Tris-HCl pH 7.5, 50 mM NaCl, 50 mM NH4Cl, 50 mM KCl, 0.5 mM EDTA, 2 mM MgCl2, 5% glycerol, room temperature, 1 h; 6% native gel in 1x THEM2", "conditions": "protein: recombinant, tags: C-terminal His6, chain copies: 6, label: 5'-32P"}, "Hfq wt [6]": {"target": "T4, Hfq wt", "experiment": "EMSA; 24 mM Tris-HCl pH 7.5, 50 mM NaCl, 50 mM NH4Cl, 50 mM KCl, 0.5 mM EDTA, 2 mM MgCl2, 5% glycerol, room temperature, 1 h; 6% native gel in 1x THEM2", "conditions": "protein: recombinant, tags: C-terminal His6, chain copies: 6, label: 5'-32P"}, "Hfq wt [7]": {"target": "T4, Hfq wt", "experiment": "EMSA; 3 nM Hfq hexamer; 24 mM Tris-HCl pH 7.5, 50 mM NaCl, 50 mM NH4Cl, 50 mM KCl, 0.5 mM EDTA, 2 mM MgCl2, 5% glycerol, room temperature, 1 h; 6% native gel in 1x THEM2", "conditions": "protein: recombinant; tags: C-terminal His6; chain copies: 6; label: 32P"}, "Hfq R16A [8]": {"target": "T1, Hfq R16A", "experiment": "EMSA; 24 mM Tris-HCl pH 7.5, 50 mM NaCl, 50 mM NH4Cl, 50 mM KCl, 0.5 mM EDTA, 2 mM MgCl2, 5% glycerol, room temperature, 1 h; 6% native gel in 1x THEM2", "conditions": "protein: recombinant; tags: C-terminal His6; chain copies: 6; label: 5'-32P"}, "Hfq Y25D [9]": {"target": "T2, Hfq Y25D", "experiment": "EMSA; 24 mM Tris-HCl pH 7.5, 50 mM NaCl, 50 mM NH4Cl, 50 mM KCl, 0.5 mM EDTA, 2 mM MgCl2, 5% glycerol, room temperature, 1 h; 6% native gel in 1x THEM2", "conditions": "protein: recombinant; tags: C-terminal His6; chain copies: 6; label: 5'-32P"}, "Hfq K56A [10]": {"target": "T3, Hfq K56A", "experiment": "EMSA; 24 mM Tris-HCl pH 7.5, 50 mM NaCl, 50 mM NH4Cl, 50 mM KCl, 0.5 mM EDTA, 2 mM MgCl2, 5% glycerol, room temperature, 1 h; 6% native gel in 1x THEM2", "conditions": "protein: recombinant; tags: C-terminal His6; chain copies: 6; label: 5'-32P"}}, "data": [{"binder": "ompD-187 (structured_RNA) RNA: GCCAUUGACAAACGCCUCGUUUAACAAUGGUUGAGGAAACACGCUAAGAAAAUUAUAAGGAUUAUUAAAAUGAAACUUAAGUUAGUGGCAGUGGCAGUGACUUCCCUGUUGGCAGCAGGCGUUGUAAAUGCAGCCGAGGUAUAUAACAAAGACGGCAAUAAACUGGAUCUGUACGGUAAAGUUCACG", "values": [{"measurement": "binding signal", "setting": "Hfq R16A [1]", "value": "~1 fold vs wt Hfq (not changed)"}, {"measurement": "binding signal", "setting": "Hfq Y25D [2]", "value": "~3", "unit": "fold weaker than wt Hfq"}, {"measurement": "binding signal", "setting": "Hfq K56A [3]", "value": "~2", "unit": "fold weaker than wt Hfq"}, {"measurement": "Kd", "setting": "Hfq wt [4]; five stem-loops SL1-SL5", "value": "0.61 ± 0.17", "unit": "nM"}, {"measurement": "Kd", "setting": "Hfq wt [5]; five stem-loops SL1-SL5", "value": "1.9 ± 0.58", "unit": "nM"}]}, {"binder": "ompD-187 ARN-2 (structured_RNA) RNA: GCCAUUGACAAACGCCUCGUUUAACAAUGGUUGUUGAUACACGCUAAGAAAAUUAUAAGGAUUAUUAAAAUGAAACUUAAGUUAGUGGCAGUGGCAGUGACUUCCCUGUUGGCAGCAGGCGUUGUAAAUGCAGCCGAGGUAUAUAACAAAGACGGCAAUAAACUGGAUCUGUACGGUAAAGUUCACG", "values": [{"measurement": "Kd", "setting": "Hfq wt [4]", "value": "0.85 ± 0.003", "unit": "nM"}, {"measurement": "Kd", "setting": "Hfq wt [5]", "value": "2.2 ± 0.25", "unit": "nM"}]}, {"binder": "ompD-187 ARN-1 (structured_RNA) RNA: GCCAUUGACAAACGCCUCGUUUCGCAAUGGUUGAGGAAACACGCUAAGAAAAUUAUAAGGAUUAUUAAAAUGAAACUUAAGUUAGUGGCAGUGGCAGUGACUUCCCUGUUGGCAGCAGGCGUUGUAAAUGCAGCCGAGGUAUAUAACAAAGACGGCAAUAAACUGGAUCUGUACGGUAAAGUUCACG", "values": [{"measurement": "Kd", "setting": "Hfq wt [4]", "value": "0.77 ± 0.097", "unit": "nM"}, {"measurement": "Kd", "setting": "Hfq wt [5]", "value": "3 ± 0.46", "unit": "nM"}]}, {"binder": "ompD-187 ARN-6 (structured_RNA) RNA: GCCAUUGACAAACGCCUCGUUUAACAAUGGUUGAGGAAACACGCUAAGAAAAUUAUAAGGAUUAUUAAAAUGAAACUUAAGUUAGUGGCAGUGGCAGUGACUUCCCUGUUGGCAGCAGGCGUUGUAAAUGCAGCCGAGGUAUAUAACAAAGACGGCCAUUCACUGGAUCUGUACGGUAAAGUUCACG", "values": [{"measurement": "Kd", "setting": "Hfq wt [4]", "value": "0.82 ± 0.075", "unit": "nM"}, {"measurement": "Kd", "setting": "Hfq wt [5]", "value": "2.4 ± 0.29", "unit": "nM"}]}, {"binder": "ompD-187 ARN-5+6 (structured_RNA) RNA: GCCAUUGACAAACGCCUCGUUUAACAAUGGUUGAGGAAACACGCUAAGAAAAUUAUAAGGAUUAUUAAAAUGAAACUUAAGUUAGUGGCAGUGGCAGUGACUUCCCUGUUGGCAGCAGGCGUUGUAAAUGCAGCCGAGGUAUAUAACGAGGACGGCCAUUCACUGGAUCUGUACGGUAAAGUUCACG", "values": [{"measurement": "Kd", "setting": "Hfq wt [4]", "value": "0.81 ± 0.09", "unit": "nM"}]}, {"binder": "ompD-187 ARN-5 (structured_RNA) RNA: GCCAUUGACAAACGCCUCGUUUAACAAUGGUUGAGGAAACACGCUAAGAAAAUUAUAAGGAUUAUUAAAAUGAAACUUAAGUUAGUGGCAGUGGCAGUGACUUCCCUGUUGGCAGCAGGCGUUGUAAAUGCAGCCGAGGUAUAUAACGAGGACGGCAAUAAACUGGAUCUGUACGGUAAAGUUCACG", "values": [{"measurement": "Kd", "setting": "Hfq wt [4]", "value": "0.89 ± 0.093", "unit": "nM"}, {"measurement": "Kd", "setting": "Hfq wt [5]", "value": "3 ± 0.46", "unit": "nM"}]}, {"binder": "ompD-1-95 (structured_RNA) RNA: GCCAUUGACAAACGCCUCGUUUAACAAUGGUUGAGGAAACACGCUAAGAAAAUUAUAAGGAUUAUUAAAAUGAAACUUAAGUUAGUGGCAGUGGC", "values": [{"measurement": "binding signal", "setting": "Hfq wt [6]; SL1, SL2", "value": "~1 fold vs ompD-187 (similar)"}]}, {"binder": "GCCUGCAUUAAUGCCAAC (ssRNA)", "note": "[SdsR-18]", "values": [{"measurement": "binding result", "setting": "Hfq wt [7]", "value": "no binding"}]}, {"binder": "GUUAUAUGCCUU (ssRNA)", "note": "[MicC-12]", "values": [{"measurement": "binding result", "setting": "Hfq wt [7]", "value": "no binding"}]}, {"binder": "ompD-187-SL2mut (structured_RNA) RNA: GGCCAUUGACAAACGCCUCGUUUAACAAUGGUUGAGGAAACACGCUUUGAUAAUUCUAGGGCUUAUUUUUAUGAUGCUUAAGUUAGUGGCAGUGGCAGUGACUUCCCUGUUGGCAGCAGGCGUUGUAAAUGCAGCCGAGGUAUAUAACAAAGACGGCAAUAAACUGGAUCUGUACGGUAAAGUUCACG", "values": [{"measurement": "binding signal", "setting": "Hfq R16A [8]", "value": "~10 fold weaker than R16A to ompD-187"}, {"measurement": "binding signal", "setting": "Hfq Y25D [9]", "value": "~1 fold vs same Hfq mutant to ompD-187 (similar)"}, {"measurement": "binding signal", "setting": "Hfq wt [6]", "value": "~3", "unit": "fold weaker than ompD-187"}, {"measurement": "binding signal", "setting": "Hfq K56A [10]", "value": "~1 fold vs same Hfq mutant to ompD-187 (similar)"}]}, {"binder": "GCCGAGGUAUAUAACAAA (ssRNA)", "note": "[ompD-18M]", "values": [{"measurement": "binding result", "setting": "Hfq wt [7]", "value": "no binding"}]}, {"binder": "CCUGUUGGCAGCAGGCGUU (ssRNA)", "note": "[ompD-19S]", "values": [{"measurement": "binding result", "setting": "Hfq wt [7]", "value": "no binding"}]}, {"binder": "ompD-93-187 (structured_RNA) RNA: GGCAGUGACUUCCCUGUUGGCAGCAGGCGUUGUAAAUGCAGCCGAGGUAUAUAACAAAGACGGCAAUAAACUGGAUCUGUACGGUAAAGUUCACG", "values": [{"measurement": "binding signal", "setting": "Hfq wt [6]; SL3, SL4, SL5", "value": "~6", "unit": "fold weaker than ompD-187"}]}, {"binder": "ompD-35-131 (structured_RNA) RNA: GGAAACACGCUAAGAAAAUUAUAAGGAUUAUUAAAAUGAAACUUAAGUUAGUGGCAGUGGCAGUGACUUCCCUGUUGGCAGCAGGCGUUGUAAAUGC", "values": [{"measurement": "binding signal", "setting": "Hfq wt [6]; SL2, SL3", "value": "~4 fold tighter than ompD-187"}]}, {"binder": "GCCACUGCUUUUCUUU (ssRNA)", "note": "[RybB-16]", "values": [{"measurement": "binding result", "setting": "Hfq wt [7]", "value": "no binding"}]}, {"binder": "UAAGUUAGUGGCAGUGGCAGU (ssRNA)", "note": "[ompD-21R]", "values": [{"measurement": "binding result", "setting": "Hfq wt [7]", "value": "no binding"}]}, {"binder": "ompD-187 ARN-3 (structured_RNA) RNA: GCCAUUGACAAACGCCUCGUUUAACAAUGGUUGAGGAAACACGCUUUGAUAUUAUAAGGAUUAUUAAAAUGAAACUUAAGUUAGUGGCAGUGGCAGUGACUUCCCUGUUGGCAGCAGGCGUUGUAAAUGCAGCCGAGGUAUAUAACAAAGACGGCAAUAAACUGGAUCUGUACGGUAAAGUUCACG", "values": [{"measurement": "Kd", "setting": "Hfq wt [4]", "value": "0.93 ± 0.24", "unit": "nM"}, {"measurement": "Kd", "setting": "Hfq wt [5]", "value": "2.9 ± 0.35", "unit": "nM"}, {"measurement": "binding signal", "setting": "Hfq R16A [8]", "value": "~6 fold weaker than R16A to ompD-187"}, {"measurement": "binding signal", "setting": "Hfq Y25D [9]", "value": "~1 fold vs same Hfq mutant to ompD-187 (similar)"}, {"measurement": "binding signal", "setting": "Hfq K56A [10]", "value": "~1 fold vs same Hfq mutant to ompD-187 (similar)"}]}]}
